Where two headings read alike, the source gives them in different places.
Legend:
[1] = target: human cytochrome P450 3A4 (CYP3A4), wild type, His-tagged (human) (UniProt P08684); assay: UV-Vis absorbance
[2] = target: human cytochrome P450 3A4 (CYP3A4), wild type, His-tagged (human) (UniProt P08684)
[3] = target: human cytochrome P450 3A4 (CYP3A4), wild type, His-tagged (human) (UniProt P08684); assay: UV-Vis absorbance; remark: listed apart in the source
[4] = target: human cytochrome P450 3A4 (CYP3A4), wild type, His-tagged (human) (UniProt P08684); assay: UV-Vis absorbance; remark: listed apart in the source

flavin domain of cytochrome P450BM-3 from Bacillus megaterium (BMR) (domain or fragment)
Kd [1]: 140 nM
stoichiometry N [1]: 1
total reducibility of CYP3A4 by BMR; CYP3A4-ND, with 1-PB [2]: 91%
total reducibility of CYP3A4 by BMR; CYP3A4-ND, with ANF [2]: 79%
total reducibility of CYP3A4 by BMR; proteoliposomes LPS-76, no substrate [2]: 55%
total reducibility of CYP3A4 by BMR; proteoliposomes LPS-76, with ANF [2]: 47%
total reducibility of CYP3A4 by BMR; proteoliposomes LPS-910, no substrate [2]: 83%
total reducibility of CYP3A4 by BMR; proteoliposomes LPS-910, with ANF [2]: 85%
stoichiometry N [3]: 1
Kd [4]: 100 nM
